Consider one molecule from patent US10947270B2, “Targeted prodrug cytosine deaminase fusion carrier and application thereof” (National Yang-Ming University, priority 2015, dated 2021).

Data set [1] deals with integrin αvβ3 receptor (Homo sapiens, UniProt P05106+P06756). Briefly: ELISA binding ability of DTPA modified and In-labeled yCD series protein to integrin αvβ3 receptor. The following applies: before and after modification, marking, purification. An excerpt:
The curve and receptor binding ability parameters (see FIG. 19 and Table 14) are fitted by the binding ability of DTPA-modified protein and integrin αvβ3 receptor through the One site-Specific binding formula in the Graph prism program.
Before the protein is labeled by radioisotope, its enzyme function must be determined, and based on the original enzyme function, it should be examined whether it will be affected during the radioactive marking process. The curve and enzyme kinetic parameters of protein are fitted by the Michaelis-Menten formula in the Graph prism program. […] Whether the yCD and RGD4C-yCD protein detected by the same method will be affected under the conditions of DTPA modification, marking and purification. […] After the completion of the radioactive metal mark, it is necessary to add EDTA of 10-fold protein Moire number and react at room temperature for 1 hour to compete for the radioactive metal isotope indium which is not chelated on DTPA. The EDTA in this step also has the chance to chelate the metal zinc ion of the enzyme catalytic center, the enzyme activity is impaired, so it is necessary to analyze the enzyme activity of In-DTPA-yCD and In-RGD4C-yCD protein after competition with EDTA. […]
A general note: An ELISA detects its analyte on a solid surface through an enzyme-linked reagent.

In data set [2] the test system is HUVEC and U87MG cells. Briefly: Fluorescence microscopy of binding and distribution of yCD series fusion proteins. Format: cell-based, human. The following applies: 500 nM protein, 4° C., 2 hours. As for the experimental part: (FIG. 8A) or 37° C. […] (FIG. 8C) or 37° C. (FIG. 8D) for 2 hours, and then the fluorescent staining is performed for the cells, and the confocal fluorescence microscope is used to observe the distribution of protein in cells. (Green signal: β3 integrin; red signal: anti-His6-tag (also represents the signal of the fusion protein); blue signal: Hoechst 33342 cell nuclear stain) (Calibration scale: 20 μm).
HUVEC and U87MG cells are co-cultured with culture medium containing 500 nM RGD4C-yCD and RGD4C-yCD/UPRT protein at 4° C. and 37° C. for 2 hours, then the cells are stained with fluorescence, and the distribution in the cell is observed by conjugated fluorescence microscopy.

A short description of data set [3]: Enzyme kinetic analysis of EcCD series fusion proteins, substrate cytosine. Format: biochemical. An excerpt:
FIGS. 11A-11D show the activity and kinetics analysis of EcCD series fusion protein enzymes, and the EcCD series proteins are combined with 5-FC at different concentrations for reaction. Respectively calculate the 5-FU formation reaction rate shown in FIG. 11A, 5-FC consumption reaction rate shown in FIG. 10B, uracil formation reaction rate shown in FIG. 10C and cytosine consumption reaction rate shown in FIG. 10D, substitute Michaelis-Menten formula, and calculate the base mass (Kcat) and Km value catalyzed by each mol enzyme in unit time. […]

A short description of data set [4]: Enzyme activity and kinetic analysis of yCD series recombinant proteins (5-FC converted into 5-FU). Format: biochemical. To be noted: 50 nM protein. As for the experimental part:
FIGS. 2A-2B show the enzyme activities of RGD4C-yCD, yCD, RGD4C-yCD/UPRT and yCD/UPRT proteins to convert 5-FC to 5-FU. 50 nM of RGD4C-yCD, yCD, RGD4C-yCD/UPRT or yCD/UPRT protein reacted with increasing concentrations of 5-FC in phosphate buffered saline solutions. […] The measured data was used to plot the enzyme kinetic curve that takes the substrate concentration [S] as the x-axis and takes the initial reaction rate V0 as the y-axis,
The enzyme activity of 5-FC converted into 5-FU by RGD4C-yCD, yCD, RGD4C-yCD/UPRT and yCD/UPRT is performed. The recombinant protein concentration (50 nM) added with 5-FC at different concentrations. The 5-FC consumption and the generated amount of 5-FU is calculated. The measured data is taken as the x-axis by the substrate concentration [S]; the initial reaction rate V0 is the kinetic curve by making a diagramthe with y-axis (see FIG. 2A and FIG. 2B); the non-linear regression is made by the prism software according to the Michaelis-Menten equation; calculate the enzyme kinetic parameter Km and Vmax. […] It is speculated that the yCD function in each fusion protein is similar, but yUPRT may affect the effects of yCD and 5-FC.

The test system of data set [5] is HUVEC, U87MG and MCF-7 cells. Briefly: Specific binding assay of yCD series recombinant protein and cell, statement for the three cells. Format: cell-based, human. As for the experimental part: FIG. 5A, FIG. 5B, and FIG. 5C are respectively represented HUVEC cells, U87MG cells, MCF-7 cells seeded in 96-well plates for 24 hours, and then RGD4C-yCD, yCD, RGD4C-yCD/UPRT and yCD/UPRT with different concentrations are added for cells binding assay. After reacted with anti-His-HRP antibody and TMB substrate, ELISA reader (OD450 nm) is used to detect the amount of recombinant protein bound to the cells, and the binding curve is drawn. The nonlinear curve of the prism software is used to make a diagram and calculate the dissociation constant (Kd).
The anti-His6-Tag-HRP antibody and TMB show the color reagent to detect the amount of recombinant protein bound to the cell, then the dissociation constant Kd value of the recombinant protein and the integrin αvβ3 receptor is calculated and a binding curve is drawn. […] The cell binding ability of RGD4C-yCD for HUVEC and U87MG are about 7.7 folds and 6.8 folds higher than MCF-7 respectively. The cell binding ability of RGD4C-yCD/UPRT for HUVEC and U87MG are about 6.9 folds and 5.8 folds higher than MCF-7 respectively. […] It is shown that RGD4C-yCD and RGD4C-yCD/UPRT are specially bound with integrin αvβ3 through RGD4C sequence.

integrin αvβ3 receptor, sequence (P06756 31-889 limits assumed): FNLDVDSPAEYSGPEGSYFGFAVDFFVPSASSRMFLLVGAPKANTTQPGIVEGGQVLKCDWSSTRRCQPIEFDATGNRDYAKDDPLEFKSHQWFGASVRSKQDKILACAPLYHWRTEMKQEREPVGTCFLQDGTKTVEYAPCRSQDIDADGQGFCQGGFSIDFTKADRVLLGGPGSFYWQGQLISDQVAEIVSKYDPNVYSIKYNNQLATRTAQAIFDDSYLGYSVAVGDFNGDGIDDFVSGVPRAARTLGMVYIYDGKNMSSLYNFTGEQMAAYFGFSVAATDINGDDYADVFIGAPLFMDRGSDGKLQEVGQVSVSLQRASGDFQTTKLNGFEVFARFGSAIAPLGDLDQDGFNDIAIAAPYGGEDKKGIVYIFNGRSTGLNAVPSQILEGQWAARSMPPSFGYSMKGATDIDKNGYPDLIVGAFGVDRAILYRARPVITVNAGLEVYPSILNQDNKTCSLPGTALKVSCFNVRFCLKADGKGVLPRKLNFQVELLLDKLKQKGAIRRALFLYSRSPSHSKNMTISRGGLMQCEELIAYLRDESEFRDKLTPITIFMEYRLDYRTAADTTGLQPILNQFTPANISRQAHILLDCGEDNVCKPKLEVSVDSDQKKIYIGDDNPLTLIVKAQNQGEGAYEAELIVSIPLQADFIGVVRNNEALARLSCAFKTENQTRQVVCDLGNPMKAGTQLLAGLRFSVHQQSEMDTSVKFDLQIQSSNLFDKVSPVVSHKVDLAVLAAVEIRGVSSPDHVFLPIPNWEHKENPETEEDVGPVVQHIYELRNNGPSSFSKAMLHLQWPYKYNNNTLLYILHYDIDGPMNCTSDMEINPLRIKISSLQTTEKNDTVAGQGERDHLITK
integrin αvβ3 receptor, sequence (P06756 891-1048 partner limits assumed): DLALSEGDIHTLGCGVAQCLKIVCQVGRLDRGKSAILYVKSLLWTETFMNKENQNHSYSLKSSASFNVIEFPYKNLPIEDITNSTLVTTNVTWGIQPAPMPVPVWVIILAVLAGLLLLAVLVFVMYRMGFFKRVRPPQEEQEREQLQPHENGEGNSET
integrin αvβ3 receptor, sequence (P05106 27-788): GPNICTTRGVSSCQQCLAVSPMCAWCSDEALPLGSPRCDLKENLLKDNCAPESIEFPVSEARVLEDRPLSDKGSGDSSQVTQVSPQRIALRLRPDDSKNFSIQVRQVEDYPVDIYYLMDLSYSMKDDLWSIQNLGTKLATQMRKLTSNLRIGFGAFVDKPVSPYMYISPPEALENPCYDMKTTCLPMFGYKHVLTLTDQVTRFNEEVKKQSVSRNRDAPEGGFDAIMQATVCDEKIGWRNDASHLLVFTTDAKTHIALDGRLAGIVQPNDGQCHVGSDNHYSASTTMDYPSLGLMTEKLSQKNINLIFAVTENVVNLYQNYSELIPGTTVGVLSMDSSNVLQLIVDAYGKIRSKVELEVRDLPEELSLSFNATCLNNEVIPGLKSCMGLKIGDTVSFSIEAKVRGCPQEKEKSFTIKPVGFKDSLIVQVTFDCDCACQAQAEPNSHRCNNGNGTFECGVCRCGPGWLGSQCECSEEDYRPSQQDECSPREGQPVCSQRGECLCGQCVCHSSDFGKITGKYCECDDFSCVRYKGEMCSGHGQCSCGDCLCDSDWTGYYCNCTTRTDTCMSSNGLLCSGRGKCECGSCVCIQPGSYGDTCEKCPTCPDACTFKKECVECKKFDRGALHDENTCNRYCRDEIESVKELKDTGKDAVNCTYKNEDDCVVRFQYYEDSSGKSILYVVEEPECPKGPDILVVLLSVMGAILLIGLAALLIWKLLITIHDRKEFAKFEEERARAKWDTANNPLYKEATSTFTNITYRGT

B1: yCD: yeast cytosine deaminase (yCD) (SEQ ID NO: 1), recombinant protein without target molecule (protein)
chain: MVVTGGMASKWDQKGMDIAYEEAALGYKEGGVPIGGCLINNKDGSVLGRGHNMRFQKGSATLHGEISTLENCGRLEGKVYKDTTLYTTLSPCDMCTGAIIMYGIPRCVVGENVNFKSKGEKYLQTRGHEVVVVDDERCKKIMKQFIDERPQDWFEDIGELEHHHHHH
modifications: yCD
The Km is the substrate concentration at which the rate is half of its maximum. What is called Vmax is the top rate of the reaction or transport when substrate is in excess. In the case of B1, the “binding with integrin αvβ3 receptor” value in data set [1] was “can not be bound”. Besides, the “binding and distribution in cells” value in data set [2] was “can not be effectively bound”. In addition, the Kcat in data set [3] (cytosine consumption) turned out to be 55.6 ± 8.5 s⁻¹; in data set [3] (uracil generation), 54.6 ± 1.3 s⁻¹. Further, the Km in data set [3] (cytosine consumption) was 4700 ± 1300 µM; in data set [3] (uracil generation), 3900 ± 200 µM; in data set [4] (calculated by 5-FC consumption), 700 ± 100 µM; in data set [4] (calculated by 5-FU formation), 1000 ± 100 µM. Besides, the Vmax in data set [4] (calculated by 5-FC consumption) was 175.8 ± 4.7 µM/min; in data set [4] (calculated by 5-FU formation), 164.2 ± 4.7 µM/min. Also, in data set [5], the “binding to the three cells” value is “weak binding”.
